Consider 31 variants from FireProtDB (doi:10.1016/0022-2836(92)90564-z).

B1: Ribonuclease, P00648 (parent)
chain: MMKMEGIALKKRLSWISVCLLVLVSAAGMLFSTAAKTETSSHKAHTEAQVINTFDGVADYLQTYHKLPDNYITKSEAQALGWVASKGNLADVAPGKSIGGDIFSNREGKLPGKSGRTWREADINYTSGFRNSDRILYSSDWLIYKTTDHYQTFTKIR

“And” between values parts separate entries of the source, which are not always exact repeats. Equal entries are not always repeated.

The variants in the series derive from B1. The settings on record: Bacillus amyloliquefaciens; pH 6.3; 25 °C; Urea; Fluorescence; MES 1.00 M; NaCl 613 mM; reversible: yes; structure 1BNI; whole UniProt chain shown.
Take N131A: the “ddG of mutation (higher = less stable)” value is 2.24 kcal/mol. In the case of S139A it was 2.74 kcal/mol; in that of I72V, 1.18 kcal/mol; in that of T152V, 2.25 kcal/mol. Take N105A: the “ddG of mutation (higher = less stable)” value is 2.17 kcal/mol. In the case of I102T it was 1 kcal/mol. In the case of I102A it was 1.28 kcal/mol; in that of K109R, 0.43 kcal/mol. With E76G, the “ddG of mutation (higher = less stable)” value was found to be 1.9 kcal/mol. Then I98V, with 1.85 kcal/mol; and I135A, with 2.76 kcal/mol; and S138A, with 1.93 kcal/mol. In the case of V57T, the “ddG of mutation (higher = less stable)” value came out at 2.58 kcal/mol. In the case of V57A it was 3.63 kcal/mol; in that of V92A, 1.83 kcal/mol. Then V92T, with 2.44 kcal/mol.

Consider L136V, for which the “ddG of mutation (higher = less stable)” value worked out at 0.03 kcal/mol. In the case of L136T, the “ddG of mutation (higher = less stable)” value is 2.9 kcal/mol and 2.55 kcal/mol.

For I143A, the “ddG of mutation (higher = less stable)” value was found to be 2.37 kcal/mol. As for D101A, the “ddG of mutation (higher = less stable)” value stood at 3.1 kcal/mol. With D101N, the “ddG of mutation (higher = less stable)” value worked out at 2.42 kcal/mol. Consider I123V, for which the “ddG of mutation (higher = less stable)” value is 0.88 kcal/mol. With I123A, the “ddG of mutation (higher = less stable)” value was 2.04 kcal/mol and 1.16 kcal/mol. Then N88D, with 2.51 kcal/mol. V83A: the “ddG of mutation (higher = less stable)” value came out at 1.34 kcal/mol.

As for N52A, the “ddG of mutation (higher = less stable)” value came out at 2.06 kcal/mol.

Turning to I156V, the “ddG of mutation (higher = less stable)” value is 0.82 kcal/mol.

Turning to I156A, the “ddG of mutation (higher = less stable)” value is 2.22 kcal/mol and 1.4 kcal/mol. In the case of N124A it was 1.88 kcal/mol; in that of I51V, 0.67 kcal/mol.

On to I51A, for which the “ddG of mutation (higher = less stable)” value is 1.5 kcal/mol and 0.83 kcal/mol.
